Results published in patent US20250109178A1 (published 2025).
Residue numbers refer to the chain shown, from its start. Where two headings read alike, the source gives them in different places.

B1: rituximab-ULBP2.AA MicAbody (bispecific antibody)
heavy: not shown
light: QIVLSQSPAILSASPGEKVTMTCRASSSVSYIHWFQQKPGSSPKPWIYATSNLASGVPVRFSGSGSGTSYSLTISRVEAEDAATYYCQQWTSNPPTFGGGTKLEIKTVAAPSVFIFPPSDEQLKSGTASVVCLLNNFYPREAKVQWKVDNALQSGNSQESVTEQDSKDSTYSLSSTLTLSKADYEKHKVYACEVTHQGLSSPVTKSFNRGECAPTSSSGGGGSEPHSLSYDITVIPKFRPGPRWCAVQGQVDEKTFLHYDCGNKTVTPVSPLGKKLNVTTAWKAQNPVLREVVDILTEQLWDIQLENYTPKEPLTLQARMSCEQKAEGHSSGSWQFSFDGQIFLLFDSEKRMWTTVHPGARKMKEKWENDKVVATMFWSWSMGDCIGWLEDFLMGMDSTLEPS
B2: rituximab-ULBP2.AB MicAbody (bispecific antibody)
heavy: not shown
light: B1 light with M376L, F377M, S379Q
B3: rituximab-ULBP2.C MicAbody (bispecific antibody)
heavy: not shown
light: B1 light with M376I, F377L, S379Q, W380T
B4: rituximab-ULBP2.S3 MicAbody (bispecific antibody)
heavy: not shown
light: QIVLSQSPAILSASPGEKVTMTCRASSSVSYIHWFQQKPGSSPKPWIYATSNLASGVPVRFSGSGSGTSYSLTISRVEAEDAATYYCQQWTSNPPTFGGGTKLEIKRTVAAPSVFIFPPSDEQLKSGTASVVCLLNNFYPREAKVQWKVDNALQSGNSQESVTEQDSKDSTYSLSSTLTLSKADYEKHKVYACEVTHQGLSSPVTKSFNRGECAPTSSSGGGGSEPHSLSYDITVIPKFRPGPRWCAVQGQVDEKTFLHYDCGNKTVTPVSPLGKKLNVTTAWKAQNPVLREVVDILTEQLWDIQLENYTPKEPLTLQARMSCEQKAEGHSSGSWQFSFDGQIFLLFDSEKRMWTTVHPGARKMKEKWENDKVVATKLYLWSMGDCIGWLEDFLMGMDSTLEPS
B5: ULBP2.wt rituximab-MicAbody (bispecific antibody)
heavy: not shown
light: B4 light with W302R, T376M, K377S, L378F, Y379H, L380Y, W381F
B6: ULBP2.wt (bispecific antibody)
heavy: not shown
light: B4 light with W302R, T376M, K377S, L378F, Y379H, L380Y, W381F

Assays:
Assay in all cases: ELISA
[1] = molecular target: T1, Fc-NKG2D.wt (natural human NKG2D ectodomain fused to the C-terminus of human IgG1 Fc)
[2] = molecular target: T1, Fc-NKG2D.wt (natural human NKG2D …); remark: listed apart in the source
[3] = molecular target: T1, Fc-NKG2D.wt (natural human NKG2D …); remark: listed apart in the source
[4] = molecular target: eNKG2D4 V|Y
[5] = molecular target: eNKG2D3 T|Y
[6] = molecular target: eNKG2D14 L|Y
[7] = molecular target: eNKG2D2 S|Y

| Binder | EC50 [1] [nM] | EC50 [2] [nM] | other results |
| --- | --- | --- | --- |
| B1 | 655 | – | – |
| B2 | 389 | – | – |
| B3 | 130 | – | – |
| B4 | – | 52.7 | – |
| B5 | – | 1.02 | EC50 [3]: 1.41 nM |
| B6 | – | – | EC50 [4]: 35.8 nM; EC50 [5]: 31.1 nM; EC50 [6]: 87.6 nM; EC50 [7]: 34.8 nM |
